Assay results reported in IntAct's records for PubMed 25910212.

B1: Acetylcholine receptor subunit gamma (Homo sapiens), P07510-2 (parent)
chain: MHGGQGPLLLLLLLAVCLGAQGRNQEERLLADLMQNYDPNLRPAERDSDVVNVSLKLTLTNLISLNEREEALTTNVWIEMQWCDYRLRWDPRDYEGLWVLRVPSTMVWRPDIVLENKSQTYSTNEIDLQLSQEDGQTIEWIFIDPEAFTENGEWAIQHRPAKMLLDPAAPAQEAGHQKVVFYLLIQRKPLFYVINIIAPCVLISSVAILIHFLPAKAGGQKCTVAINVLLAQTVFLFLVAKKVPETSQAVPLISKYLTFLLVVTILIVVNAVVVLNVSLRSPHTHSMARGVRKVFLRLLPQLLRMHVRPLAPAAVQDTQSRLQNGSSGWSITTGEEVALCLPRSELLFQQWQRQGLVAAALEKLEKGPELGLSQFCGSLKQAAPAIQACVEACNLIACARHQQSHFDNGNEEWFLVGRVLDRVCFLAMLSLFICGTAGIFLMAHYNRVPALPFPGDPRPYLPSPD
B2: ATP synthase mitochondrial F1 complex assembly factor 2 (Homo sapiens), Q8N5M1 (parent)
chain: MWRSCLRLRDGGRRLLNRPAGGPSASMSPGPTIPSPARAYAPPTERKRFYQNVSITQGEGGFEINLDHRKLKTPQAKLFTVPSEALAIAVATEWDSQQDTIKYYTMHLTTLCNTSLDNPTQRNKDQLIRAAVKFLDTDTICYRVEEPETLVELQRNEWDPIIEWAEKRYGVEISSSTSIMGPSIPAKTREVLVSHLASYNTWALQGIEFVAAQLKSMVLTLGLIDLRLTVEQAVLLSRLEEEYQIQKWGNIEWAHDYELQELRARTAAGTLFIHLCSESTTVKHKLLKE
partner: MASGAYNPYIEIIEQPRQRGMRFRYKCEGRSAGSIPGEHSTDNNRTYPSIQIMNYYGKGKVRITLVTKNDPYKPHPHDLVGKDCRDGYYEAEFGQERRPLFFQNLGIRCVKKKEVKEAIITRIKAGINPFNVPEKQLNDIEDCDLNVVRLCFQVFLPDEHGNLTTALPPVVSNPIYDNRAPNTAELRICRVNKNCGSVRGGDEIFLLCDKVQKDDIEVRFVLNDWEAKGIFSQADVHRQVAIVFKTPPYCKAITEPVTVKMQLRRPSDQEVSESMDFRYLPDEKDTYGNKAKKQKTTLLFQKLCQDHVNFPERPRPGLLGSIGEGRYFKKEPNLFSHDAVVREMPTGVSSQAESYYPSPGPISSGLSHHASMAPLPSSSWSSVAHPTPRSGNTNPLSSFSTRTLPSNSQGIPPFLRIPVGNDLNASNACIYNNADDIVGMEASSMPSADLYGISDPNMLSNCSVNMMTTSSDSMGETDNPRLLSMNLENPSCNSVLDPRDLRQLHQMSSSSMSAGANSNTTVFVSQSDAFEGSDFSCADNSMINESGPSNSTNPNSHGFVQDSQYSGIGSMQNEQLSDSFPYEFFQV
B3: Beta-crystallin A4 (Homo sapiens), P53673 (parent)
chain: MTLQCTKSAGPWKMVVWDEDGFQGRRHEFTAECPSVLELGFETVRSLKVLSGAWVGFEHAGFQGQQYILERGEYPSWDAWGGNTAYPAERLTSFRPAACANHRDSRLTIFEQENFLGKKGELSDDYPSLQAMGWEGNEVGSFHVHSGAWVCSQFPGYRGFQYVLECDHHSGDYKHFREWGSHAPTFQVQSIRRIQQ
partner: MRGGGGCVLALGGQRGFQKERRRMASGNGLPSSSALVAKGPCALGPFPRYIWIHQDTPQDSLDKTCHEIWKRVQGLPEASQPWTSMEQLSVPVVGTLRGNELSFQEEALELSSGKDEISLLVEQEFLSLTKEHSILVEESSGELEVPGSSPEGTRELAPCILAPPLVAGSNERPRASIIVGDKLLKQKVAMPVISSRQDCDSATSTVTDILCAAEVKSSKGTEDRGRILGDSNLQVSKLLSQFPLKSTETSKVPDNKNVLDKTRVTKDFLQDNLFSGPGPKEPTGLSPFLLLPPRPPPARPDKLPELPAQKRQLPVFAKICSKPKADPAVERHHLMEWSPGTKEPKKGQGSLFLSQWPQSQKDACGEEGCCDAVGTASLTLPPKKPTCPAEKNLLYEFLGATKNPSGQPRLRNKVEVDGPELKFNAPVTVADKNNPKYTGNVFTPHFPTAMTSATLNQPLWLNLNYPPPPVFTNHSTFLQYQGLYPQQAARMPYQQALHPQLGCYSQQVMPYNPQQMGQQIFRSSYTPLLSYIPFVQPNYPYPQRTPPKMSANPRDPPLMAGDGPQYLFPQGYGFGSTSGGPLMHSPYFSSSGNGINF
B4: Dolichol-phosphate mannosyltransferase subunit 1 (Homo sapiens), O60762 (parent)
chain: MASLEVSRSPRRSRRELEVRSPRQNKYSVLLPTYNERENLPLIVWLLVKSFSESGINYEIIIIDDGSPDGTRDVAEQLEKIYGSDRILLRPREKKLGLGTAYIHGMKHATGNYIIIMDADLSHHPKFIPEFIRKQKEGNFDIVSGTRYKGNGGVYGWDLKRKIISRGANFLTQILLRPGASDLTGSFRLYRKEVLEKLIEKCVSKGYVFQMEMIVRARQLNYTIGEVPISFVDRVYGESKLGGNEIVSFLKGLLTLFATT
B5: Fibulin-5 (Homo sapiens), Q9UBX5 (parent)
chain: MPGIKRILTVTILALCLPSPGNAQAQCTNGFDLDRQSGQCLDIDECRTIPEACRGDMMCVNQNGGYLCIPRTNPVYRGPYSNPYSTPYSGPYPAAAPPLSAPNYPTISRPLICRFGYQMDESNQCVDVDECATDSHQCNPTQICINTEGGYTCSCTDGYWLLEGQCLDIDECRYGYCQQLCANVPGSYSCTCNPGFTLNEDGRSCQDVNECATENPCVQTCVNTYGSFICRCDPGYELEEDGVHCSDMDECSFSEFLCQHECVNQPGTYFCSCPPGYILLDDNRSCQDINECEHRNHTCNLQQTCYNLQGGFKCIDPIRCEEPYLRISDNRCMCPAENPGCRDQPFTILYRDMDVVSGRSVPADIFQMQATTRYPGAYYIFQIKSGNEGREFYMRQTGPISATLVMTRPIKGPREIQLDLEMITVNTVINFRGSSVIRLRIYVSQYPF

Variants of: B1
Conditions: with mdfi_human MDFI

| effect of a mutation on the interaction | Variant |
| --- | --- |
| disrupting interaction strength | R187C |
| disrupting interaction strength | R86C |
| disrupting interaction strength | V107G |

Variants of: B1
Conditions: with nt2na_human NOTCH2NLA

| effect of a mutation on the interaction | Variant |
| --- | --- |
| disrupting interaction strength | R187C |
| disrupting interaction strength | R86C |
| disrupting interaction strength | V107G |

Variants of: B1
Conditions: with k1h1_human KRT31, Q15323
k1h1_human KRT31, Q15323, sequence (Q15323 whole entry): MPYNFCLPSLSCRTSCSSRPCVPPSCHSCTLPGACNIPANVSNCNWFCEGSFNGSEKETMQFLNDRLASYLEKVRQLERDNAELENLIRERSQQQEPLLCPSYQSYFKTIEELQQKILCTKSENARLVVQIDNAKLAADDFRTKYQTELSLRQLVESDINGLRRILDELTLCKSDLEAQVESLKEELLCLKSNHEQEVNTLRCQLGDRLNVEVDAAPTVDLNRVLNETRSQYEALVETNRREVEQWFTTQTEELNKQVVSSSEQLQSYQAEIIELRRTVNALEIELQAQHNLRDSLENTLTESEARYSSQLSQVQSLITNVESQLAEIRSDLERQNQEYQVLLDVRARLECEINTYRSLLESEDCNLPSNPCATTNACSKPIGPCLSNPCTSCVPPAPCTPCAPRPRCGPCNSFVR

| effect of a mutation on the interaction | Variant |
| --- | --- |
| disrupting interaction strength | R187C |
| disrupting interaction strength | R86C |
| disrupting interaction strength | V107G |

Variants of: B1
Conditions: with meox2_human MEOX2, P50222
Target sequence in this assay (P50222 whole entry): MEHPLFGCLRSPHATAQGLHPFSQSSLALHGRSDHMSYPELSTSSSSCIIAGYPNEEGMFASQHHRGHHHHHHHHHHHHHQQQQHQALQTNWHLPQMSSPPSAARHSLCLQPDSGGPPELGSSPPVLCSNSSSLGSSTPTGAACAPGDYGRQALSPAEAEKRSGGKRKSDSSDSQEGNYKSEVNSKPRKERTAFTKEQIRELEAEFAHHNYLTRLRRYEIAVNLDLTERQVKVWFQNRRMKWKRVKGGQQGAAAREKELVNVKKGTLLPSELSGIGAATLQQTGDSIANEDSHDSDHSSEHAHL

| effect of a mutation on the interaction | Variant |
| --- | --- |
| disrupting interaction strength | R187C |
| disrupting interaction strength | R86C |
| disrupting interaction strength | V107G |

Variants of: B2
Conditions: with REL

| effect of a mutation on the interaction | Variant |
| --- | --- |
| disrupting interaction strength | W94R |

Variants of: B3
Conditions: with ca094_human C1orf94, Q6P1W5

| effect of a mutation on the interaction | Variant |
| --- | --- |
| disrupting interaction strength | L69P |
| disrupting interaction strength | F94S |
| disrupting interaction strength | V36M |

Variants of: B4
Conditions: with t23o_human TDO2, P48775
t23o_human TDO2, P48775, sequence (P48775 whole entry, looked up): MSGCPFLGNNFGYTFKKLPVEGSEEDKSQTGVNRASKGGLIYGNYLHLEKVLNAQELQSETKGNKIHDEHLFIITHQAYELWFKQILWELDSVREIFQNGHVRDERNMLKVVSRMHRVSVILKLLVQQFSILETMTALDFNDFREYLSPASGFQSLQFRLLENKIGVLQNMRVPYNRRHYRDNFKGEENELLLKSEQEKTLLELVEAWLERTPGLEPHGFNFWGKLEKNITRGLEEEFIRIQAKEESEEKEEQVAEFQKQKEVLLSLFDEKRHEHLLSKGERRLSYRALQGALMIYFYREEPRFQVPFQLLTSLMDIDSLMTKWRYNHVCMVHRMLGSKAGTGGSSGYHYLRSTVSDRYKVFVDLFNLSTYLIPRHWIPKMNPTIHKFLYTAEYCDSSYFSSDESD

| effect of a mutation on the interaction | Variant |
| --- | --- |
| with no effect | R92G |
| with no effect | S248P |

Variants of: B5
Conditions: with otx1_human OTX1, P32242
otx1_human OTX1, P32242, sequence (P32242 whole entry): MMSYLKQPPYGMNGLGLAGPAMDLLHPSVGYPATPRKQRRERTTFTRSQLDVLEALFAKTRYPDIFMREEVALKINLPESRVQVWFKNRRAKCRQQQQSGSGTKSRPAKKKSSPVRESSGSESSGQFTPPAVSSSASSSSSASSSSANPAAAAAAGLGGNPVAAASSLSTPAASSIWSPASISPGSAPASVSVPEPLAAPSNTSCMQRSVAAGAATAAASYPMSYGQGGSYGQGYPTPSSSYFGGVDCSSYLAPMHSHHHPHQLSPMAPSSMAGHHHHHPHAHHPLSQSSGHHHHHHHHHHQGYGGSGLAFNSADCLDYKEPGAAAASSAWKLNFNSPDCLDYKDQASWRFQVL

| effect of a mutation on the interaction | Variant |
| --- | --- |
| disrupting interaction strength | V60L |

Variants of: B5
Conditions: with meox2_human MEOX2, P50222
Target sequence in this assay (P50222 whole entry): as the sequence (P50222 whole entry) above

| effect of a mutation on the interaction | Variant |
| --- | --- |
| disrupting interaction strength | V60L |
